± gives the half width of the 95% confidence interval.
Legend:
[1] = folding stability dG unfold (combined trypsin and chymotrypsin); higher = more stable
Summary of the method: (§1)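 Designed mini-proteins (under 80 residues, no cysteine) in a PA-tagged cDNA display construct were digested with trypsin and chymotrypsin. Each protease was used at 11 concentrations (threefold dilutions) plus a no-protease condition, followed by sequencing. K50 was inferred by Bayesian fitting of sequencing counts, and unfolding free energy was derived against a sequence-predicted unfolded-state K50 and a shared folded-state K50, per protease or combined. Only designs with AlphaFold2 dimer inter-PAE above 15 were kept.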

[2] = folding stability dG unfold from chymotrypsin proteolysis; higher = more stable
Summary of the method: as §1

[3] = folding stability dG unfold from trypsin proteolysis; higher = more stable
Summary of the method: as §1

Sequence	folding stability dG unfold [1]	folding stability dG unfold [2]	folding stability dG unfold [3]
SAGPKELAKQIKEIARELARAFHPNGQPMKMEVEIEPVSIDDENGWVRLKVKIRMPNRPVKFNITIPLKSAG [r5_53_TrROS]	11.4 ± 1.13 kJ/mol	13.4 ± 0.502 kJ/mol	8.54 ± 0.293 kJ/mol
SAGPKIEIHYTPNGIHLTIELPGEWIWMMIPVPPGEKVKIRLPGNGLEITARPYDDYVMIRIRIPDAPSAGG [r19_384_TrROS]	19.8 ± 1.13 kJ/mol	22.2 ± 0.669 kJ/mol	15 ± 0.347 kJ/mol
SAGPKITVKKLPDGSYLLLIEVPHEGGPSSRALIPYNPKTGKLELLEIETTHEEIKDKLIELAEELRKSSAG [r5_266_TrMRF]	10.6 ± 0.544 kJ/mol	11.7 ± 0.297 kJ/mol	8.22 ± 0.335 kJ/mol
SAGPNKPYKIRVSIMHPGKWREHEIDIDPGEDIEEALDEIMDKLPPNWMIMIHYANGEMIMIPIPPEMISAG [r5_77_TrROS]	8.81 ± 0.669 kJ/mol	9.12 ± 0.36 kJ/mol	7.21 ± 0.406 kJ/mol
SAGPPGQPIKPIDITVKPEENTITIKFGDKNLEIPIPPGVEADIWVYPDHIVITIEFPDGKIVTIVLPFSAG [r5_21_TrROS]	18.1 ± 1.09 kJ/mol	18.6 ± 0.795 kJ/mol	15.6 ± 1.3 kJ/mol
SAGPPKKREFEIMIQIPLPPGQSAEELKDLLEIPIRLPDGKTIEIRPRAIEVDPGPGQVTVHYKIEVTDSAG [r5_939_TrROS]	1.94 ± 0.414 kJ/mol	2.08 ± 0.46 kJ/mol	0.747 ± 0.331 kJ/mol
SAGPPPVKVTVTADYVIEDGKPIVTYTLTFPDGSTTTVTSDPETLVEWLKQHYPDIDVLNFNSGTAPAASAG [r5_25_JUSTAS]	15.8 ± 0.544 kJ/mol	16.9 ± 0.197 kJ/mol	11.6 ± 0.285 kJ/mol
SAGPPWEPVPITPEIIDKLADKLNPGFPISLQVYRHPDGRVKISIRNEGSGKEYTLVVDPDGDIEIEPSAGG [r19_70_TrROS]	14.2 ± 0.418 kJ/mol	14.74 ± 0.138 kJ/mol	12.9 ± 0.795 kJ/mol
SAGPRPIEIYVDPDGMINIRFPNNGREINIPIPKGAEIEIIELPDDYIVIEIKFGGETREFWIPPEDISAGG [r19_309_TrROS]	14.5 ± 0.318 kJ/mol	12.9 ± 0.268 kJ/mol	16.9 ± 0.544 kJ/mol
SAGPTFEIVSVEEVDGKTYIRIRLPNGRIVTARITEVKRLGPDGKLYIKVEPGMSEEELKALLPPEVLKSAG [r5_462_TrROS_Hall]	11 ± 0.176 kJ/mol	11.82 ± 0.0837 kJ/mol	9.6 ± 0.222 kJ/mol
SAGPTVRIRFAGEEEIEVEVGEELEIRLPDGSVVRIRVKPDGTVTVTRPDGSEVELEDVDEVEIEVFPASAG [r5_869_TrROS_Hall]	14.2 ± 0.837 kJ/mol	13.4 ± 0.318 kJ/mol	13.8 ± 0.544 kJ/mol
SAGPTVRQETFGEKYRIEVEVSPDGTVKVKIVNENGEVTELEGKVEPGKPVVLPFPLDGHVVNVVVLPASAG [r5_237_TrMRF]	10.5 ± 0.544 kJ/mol	12.2 ± 0.251 kJ/mol	6.45 ± 0.372 kJ/mol
SAGPVKIQIEPDNGEEFEFRLPPNVSEIETSGDKFIIRFPPGMMFKIEIDEELPPGDTVPIRILDIVPSAGG [r19_274_TrROS]	5.05 ± 0.711 kJ/mol	5.27 ± 0.628 kJ/mol	5.57 ± 0.238 kJ/mol
SAGPWIMIPLPPELREIAKKAGMSPDDVETVEIPLKFGDREVKIEVEVMPDDGWIMVRFKSNGKEFMIPSAG [r5_545_TrROS]	9.96 ± 1.21 kJ/mol	13.5 ± 0.544 kJ/mol	6.48 ± 0.418 kJ/mol
SAGPWNIMVYDNGEPLEMIEIKGDEITIPLPPGPVRIAIFNPDDNGFVEEEVTPEDGTIEMKIPKGAKISAG [r5_469_TrROS]	-0.474 ± 1.59 kJ/mol	0.865 ± 1.38 kJ/mol	-3.31 ± 1.84 kJ/mol
SAGPYVMIRIKWPGGEELSIPIPGAKITDVERDGDHITFMFDSPPAAEDIKEEIEDHFPGLKIEIQPIDSAG [r5_453_TrROS]	3.68 ± 0.586 kJ/mol	4.89 ± 0.837 kJ/mol	1.2 ± 0.669 kJ/mol
SAGPYYVRITVSIYYPGNGAPHQHTIPIKGKTLDDIKDEIRDEIRDHGMKMDPGDEVEIQITDIEVYPGSAG [r5_230_TrROS]	5.36 ± 0.314 kJ/mol	6.5 ± 0.251 kJ/mol	3.79 ± 0.0795 kJ/mol
SAGQTIRIDEIYPHPDGFLIKIRYPDGKVHTFPIKPNMPITVDGDTITITFPGGPITIPLENMEIEILPSAG [r5_999_TrROS]	13.6 ± 0.268 kJ/mol	13.3 ± 0.163 kJ/mol	13.7 ± 0.289 kJ/mol

Sequence	folding stability dG unfold [1]	folding stability dG unfold [2]	folding stability dG unfold [3]
SAGRIEIDKIEPGKPVRIKIKIEMPDPNGKKRKMDFTRRVRVDPENGMIYIPITMPNGRPIPIMINVKKSAG [r5_743_TrROS]	2.59 ± 1.21 kJ/mol	2.31 ± 1.8 kJ/mol	1.31 ± 0.962 kJ/mol
SAGRIEVYQDPNMLRVIEIPLPNGREIVIYRPPGYYHIEIENPNNNKQIPIMIPMEPGDIKKIIKEFINSAG [r5_820_TrROS]	5.57 ± 0.46 kJ/mol	5.77 ± 0.339 kJ/mol	4.93 ± 0.192 kJ/mol
SAGRIHVMVFPLDPKDGKWEWVWTFTIDFKPGEKLTLDEIADDIPPKGYMVMIWFTPDTITITIWRRKDSAG [r5_269_TrROS]	20.7 ± 0.502 kJ/mol	22.3 ± 0.343 kJ/mol	16.2 ± 0.385 kJ/mol
SAGRIYVDPNMVVIEIKYPDKPMPIIIPFKDPEDQEMAKELVKKIMRYLRNEGLPVEVEVEVFPPGQPVSAG [r5_823_TrROS]	8.83 ± 0.46 kJ/mol	10.1 ± 0.109 kJ/mol	6.32 ± 0.109 kJ/mol
SAGRKIPIMFTWPNGDPERMEEIAIEFANYLQPNGLPNVTIKIERKPVKDPENGKRRYVYMVTIEVQPPSAG [r5_49_TrROS]	10.2 ± 0.837 kJ/mol	12.1 ± 0.372 kJ/mol	8.04 ± 0.18 kJ/mol
SAGRLTTELGDVKAEVFRIPNLNLSLVVYEYPTSVRTLLATEHGDTVTIHPLTETPLPLPPLSDLKSLSAGG [r19_328_TrMRF]	0.0975 ± 0.418 kJ/mol	-0.268 ± 0.46 kJ/mol	0.16 ± 0.285 kJ/mol
SAGSAAIKALLEKHPKPEVIEVTRLPGSGTLVIKVDDEDHVVPTPPGGFTETLTVDENGNVLSVEPHPASAG [r5_329_JUSTAS]	7.29 ± 0.586 kJ/mol	6.9 ± 0.268 kJ/mol	7.49 ± 0.46 kJ/mol
SAGSAEEIAKKLAEELRKAGYEVKVKVVEVEKVGDGKVVVRVEIEVTYYDKNGKPVKKERFELTIVLPSAGG [r19_418_TrROS_Hall]	17.8 ± 0.795 kJ/mol	19.6 ± 1.13 kJ/mol	12.5 ± 0.502 kJ/mol
SAGSALAAALKLKTYTIKITAPDGTVIELTISYHPSDPEAIKEALAKAGYPPEKLKTENPNLETTEVDASAG [r5_430_JUSTAS]	7.47 ± 0.669 kJ/mol	7.67 ± 0.586 kJ/mol	6.78 ± 0.297 kJ/mol
SAGSATVTYDPDTNTVTVTLEGPDTTFTISFPNGEKLEVKATVKPLPDGSYKVLLEVYYPDGSKETFELSAG [r14_675_TrMRF]	> 25.1 kJ/mol	21.6 ± 1.26 kJ/mol	17.3 ± 0.837 kJ/mol
SAGSEEEKKAIAEELKEKILKERPELQKKEYTVEVEITPLPDDSIRITVTVTLPSGETETREYVYPNKSAGG [r19_194_JUSTAS]	12.5 ± 1 kJ/mol	12.3 ± 0.879 kJ/mol	11.3 ± 1.09 kJ/mol
SAGSITLVFKTPEELEEALKKLAEELGLSEEEVEALKKELEEKFTITYDEETGYVTITLKPELSEEELKSAG [r5_717_TrROS_Hall]	14.4 ± 1 kJ/mol	15.5 ± 0.628 kJ/mol	8.39 ± 0.544 kJ/mol
SAGSKEALLSDPSFEPVEVEIHLEIEVPGVTPEEAEAIAKELEKEITEELKKKGIKNVKVTVTIRYVERSAG [r5_431_JUSTAS]	9.36 ± 0.297 kJ/mol	10.4 ± 0.238 kJ/mol	7.17 ± 0.184 kJ/mol
SAGSKEFPFESEFEFEGYRVKVEVKVRVEFDENGKPTKNFKPEIKIEIKPLPPKPVITAEEALKLDPEKSAG [r14_442_TrMRF]	6.15 ± 1.26 kJ/mol	8.06 ± 0.586 kJ/mol	0.477 ± 0.795 kJ/mol
SAGSKVPVTATATFSDKAELEKTVADIKAKTGYDIEVTYDPNSNSYTITVNTTDEVVKMLKEKGFKLESAGG [r19_306_JUSTAS]	8.96 ± 1.17 kJ/mol	8.12 ± 0.544 kJ/mol	9.76 ± 0.544 kJ/mol
SAGSLELPPGVSEVVYDPSSGVYSVRYPDGTLVQVDVLYEPDPFVDELHPVAFVSVYSPTSLLATAPLNSAG [r5_109_TrMRF]	4.1 ± 0.28 kJ/mol	4.49 ± 0.46 kJ/mol	3.43 ± 0.0795 kJ/mol
SAGSMKIKIKAKVPPGPYRIRIMWQYPGGDFKPVEEETVDPGQEVKIPIEFPDGKPFDPDNIRVMIEPPSAG [r5_287_TrROS]	8.69 ± 1.05 kJ/mol	10.3 ± 0.406 kJ/mol	6.04 ± 0.586 kJ/mol
SAGSMLLIKITITFKDPNGNLLKTIPIEKEADPNDPEAIEKAKEEAEKLAEELLPEDELAEVKAEVLLLSAG [r5_793_JUSTAS]	9.36 ± 0.795 kJ/mol	9.88 ± 0.406 kJ/mol	7.24 ± 0.46 kJ/mol

Reference: the supplement of paper PMC12764529
